Biological target: CM1021 (human) (UniProt P02768)
Experiment: SDS-PAGE without and with reduction

Chain of CM1021 (P14210 whole entry, looked up, the tested form may be a part): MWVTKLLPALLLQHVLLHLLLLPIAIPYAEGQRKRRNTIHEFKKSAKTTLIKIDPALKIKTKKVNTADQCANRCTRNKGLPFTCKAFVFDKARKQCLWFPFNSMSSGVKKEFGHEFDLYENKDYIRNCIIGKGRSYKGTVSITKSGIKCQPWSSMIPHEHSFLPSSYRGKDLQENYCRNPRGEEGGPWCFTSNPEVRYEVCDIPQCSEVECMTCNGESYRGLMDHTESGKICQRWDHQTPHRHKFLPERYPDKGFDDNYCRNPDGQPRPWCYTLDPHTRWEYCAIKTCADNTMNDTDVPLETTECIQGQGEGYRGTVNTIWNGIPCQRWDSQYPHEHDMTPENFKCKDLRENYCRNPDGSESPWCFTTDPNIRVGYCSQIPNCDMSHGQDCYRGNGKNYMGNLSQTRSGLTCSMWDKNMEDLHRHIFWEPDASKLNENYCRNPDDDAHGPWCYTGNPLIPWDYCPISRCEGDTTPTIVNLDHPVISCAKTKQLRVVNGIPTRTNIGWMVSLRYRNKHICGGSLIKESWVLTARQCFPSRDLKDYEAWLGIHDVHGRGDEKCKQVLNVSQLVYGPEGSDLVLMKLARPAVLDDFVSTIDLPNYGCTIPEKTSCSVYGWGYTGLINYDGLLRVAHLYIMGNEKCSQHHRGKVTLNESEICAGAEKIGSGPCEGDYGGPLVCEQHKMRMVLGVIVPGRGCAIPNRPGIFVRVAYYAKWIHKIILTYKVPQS
Chain of CM1021 (P02768 whole entry, looked up, the tested form may be a part): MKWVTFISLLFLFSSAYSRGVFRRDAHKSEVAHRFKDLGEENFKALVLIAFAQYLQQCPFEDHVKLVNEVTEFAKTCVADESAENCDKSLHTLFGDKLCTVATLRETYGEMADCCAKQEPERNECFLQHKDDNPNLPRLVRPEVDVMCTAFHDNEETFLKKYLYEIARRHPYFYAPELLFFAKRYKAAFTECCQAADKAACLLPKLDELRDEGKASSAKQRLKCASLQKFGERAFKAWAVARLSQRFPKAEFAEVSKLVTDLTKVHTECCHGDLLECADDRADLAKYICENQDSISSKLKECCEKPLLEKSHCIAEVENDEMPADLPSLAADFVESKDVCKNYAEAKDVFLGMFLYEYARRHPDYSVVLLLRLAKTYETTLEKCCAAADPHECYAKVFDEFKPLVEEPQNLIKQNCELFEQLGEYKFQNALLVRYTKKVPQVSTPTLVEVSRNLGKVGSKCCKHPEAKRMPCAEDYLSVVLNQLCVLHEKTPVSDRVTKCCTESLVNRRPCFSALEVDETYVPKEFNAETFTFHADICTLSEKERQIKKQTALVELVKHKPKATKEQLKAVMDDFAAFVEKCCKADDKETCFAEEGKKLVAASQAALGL

stoichiometry N: 2
Substance: CM1021 (from UniProt P02768 1-18; P14210 124-210) (Fc fusion)
